Experimental data from patent publication US6528275B1, “Substrates and inhibitors of proteolytic enzymes” (Peptide Therapeutics Limited, priority 1996, dated 2003).

Tests used:
Assay in all cases: Der pI substrate assay with FRET peptides (fluorescence, Km, kcat/Km)
Assay type in all cases: biochemical, house dust mite
Conditions in all cases: other: purified Der pI; peptides SEQ ID Nos. 1-76; pH 8.25
[1] = substrate: CCCC[C@H](NC(=O)[C@H](C)NC(=O)[C@@H](NC(=O)[C@H](CCC(=O)O)NC(=O)c1ccccc1N)C(C)C)C(=O)N[C@@H](CO)C(=O)N[C@@H](Cc1ccc(O)c([N+](=O)[O-])c1)C(=O)N[C@@H](CC(=O)O)C(N)=O
Protocol: (§1) Using the general techniques described above, the following compounds were prepared and assayed as potential substrates against Der pI purified as described above.
(§2) Each mixture of 20 compounds in the libraries of the apparatus described herein was screened at a concentration of 1.0 μM per compound in an assay against the cysteinyl protease Der pI.
(§3) Plate assays were carried out in 96 well plate format, using 0.1 ug of Der pI per 100 μL assay volume in each well and using 20 μM of the substrate. All assays were performed in Assay Buffer (AB; 50 mM potassium phosphate, pH 8.25 containing 1 mM ethylenediaminetetraacetic acid (EDTA) and 1 mM dithiothreitol (DTT). The Der pI enzyme is pre-activated by addition of DTT and this in incubated at room temperature for 5 min. prior to initiation of the assay. As an example for the screening methodology, each well contains a 5 μL of a 20 μM solution of the test compound in DMSO, 10 μL of a 200 μM aqueous solution of the substrate, 2, and 85 μL of Der pI in AB is added to initiate the reaction. Enzyme activity is monitored by fluorescence using 320 nm for excitation and 420 nm for the emission wavelengths using a Labsystems Fluroskan Ascent machine. Kinetic measurements were carried out using a Hitachi F-4500 Fluorescence Spectrophotometer.

[2] = substrate: CC(C)[C@H](NC(=O)c1ccccc1N)C(=O)N[C@@H](C)C(=O)N[C@@H](CCC(N)=O)C(=O)N[C@@H](CO)C(=O)N[C@@H](Cc1ccc(O)c([N+](=O)[O-])c1)C(=O)N[C@@H](CC(=O)O)C(N)=O
Protocol: as §1, §2, §3

[3] = substrate: CC(C)CC[C@H](NC(=O)[C@H](C)NC(=O)[C@H](Cc1ccc(-c2ccccc2)cc1)NC(=O)c1ccccc1N)C(=O)N[C@@H](CC(=O)O)C(=O)N[C@@H](Cc1ccc(O)c([N+](=O)[O-])c1)C(=O)N[C@@H](CC(=O)O)C(N)=O
Protocol: as §1, §2, §3

[4] = substrate: CC(C)[C@H](NC(=O)c1ccccc1N)C(=O)N[C@@H](C)C(=O)N[C@@H](Cc1cccnc1)C(=O)N[C@@H](CO)C(=O)N[C@@H](Cc1ccc(O)c([N+](=O)[O-])c1)C(=O)N[C@@H](CC(=O)O)C(N)=O
Protocol: as §1, §2, §3

[5] = substrate: CCCC[C@H](NC(=O)[C@H](C)NC(=O)[C@@H](NC(=O)[C@H](CCCCN)NC(=O)c1ccccc1N)C(C)C)C(=O)N[C@@H](CO)C(=O)N[C@@H](Cc1ccc(O)c([N+](=O)[O-])c1)C(=O)N[C@@H](CC(=O)O)C(N)=O
Protocol: as §1, §2, §3

[6] = substrate: CC(C)CC[C@H](NC(=O)[C@H](C)NC(=O)[C@H](CC[S+](C)[O-])NC(=O)c1ccccc1N)C(=O)N[C@@H](CO)C(=O)N[C@@H](Cc1ccc(O)c([N+](=O)[O-])c1)C(=O)N[C@@H](CC(=O)O)C(N)=O
Protocol: as §1, §2, §3

[7] = substrate: CC(C)CC[C@H](NC(=O)[C@H](C)NC(=O)[C@H](CC1CCCCC1)NC(=O)c1ccccc1N)C(=O)N[C@@H](CO)C(=O)N[C@@H](Cc1ccc(O)c([N+](=O)[O-])c1)C(=O)N[C@@H](CC(=O)O)C(N)=O
Protocol: as §1, §2, §3

[8] = substrate: CC(C)CC[C@H](NC(=O)[C@H](C)NC(=O)[C@H](Cc1ccc(-c2ccccc2)cc1)NC(=O)c1ccccc1N)C(=O)N[C@H](C(=O)N[C@@H](Cc1ccc(O)c([N+](=O)[O-])c1)C(=O)N[C@@H](CC(=O)O)C(N)=O)[C@@H](C)O
Protocol: as §1, §2, §3

[9] = substrate: CC(C)CC[C@H](NC(=O)[C@H](C)NC(=O)[C@H](Cc1ccc(-c2ccccc2)cc1)NC(=O)c1ccccc1N)C(=O)N[C@@H](Cc1ccc(O)cc1)C(=O)N[C@@H](Cc1ccc(O)c([N+](=O)[O-])c1)C(=O)N[C@@H](CC(=O)O)C(N)=O
Protocol: as §1, §2, §3

[10] = substrate: CC(C)[C@H](NC(=O)c1ccccc1N)C(=O)N[C@@H](C)C(=O)N[C@H](C(=O)N[C@@H](CO)C(=O)N[C@@H](Cc1ccc(O)c([N+](=O)[O-])c1)C(=O)N[C@@H](CC(=O)O)C(N)=O)[C@@H](C)O
Protocol: as §1, §2, §3

[11] = substrate: CCCC[C@H](NC(=O)[C@H](C)NC(=O)[C@@H](NC(=O)c1ccccc1N)C(C)C)C(=O)N[C@@H](CO)C(=O)N[C@@H](Cc1ccc(O)c([N+](=O)[O-])c1)C(=O)N[C@@H](CC(=O)O)C(N)=O
Protocol: as §1, §2, §3

[12] = substrate: CC(C)CC[C@H](NC(=O)[C@H](CCCCN)NC(=O)[C@@H](NC(=O)c1ccccc1N)C(C)C)C(=O)N[C@@H](CO)C(=O)N[C@@H](Cc1ccc(O)c([N+](=O)[O-])c1)C(=O)N[C@@H](CC(=O)O)C(N)=O
Protocol: as §1, §2, §3

B1: Der pI (Dermatophagoides pteronyssinus) (protein)
chain: TNACSINGNAPAEIDLRQMRTVTPIRMQGGCGSCWAFSGVAATESAYLAYRNQSLDLAEQELVDCASQHGCHGDTIPRGIEYIQHNGVVQESYYRYVAREQSCRRPNAQRFGISNYCQIYPPNVNKIREALAQTHSAIAVIIGIKDLDAFRHYDGRTIIQRDNGYQPNYHAVNIVGYSNAQGVDYWIVRNSWDTNWGDNGYGYFAANIDLMMIEEYPYVVIL
notes: tissue SmithKline-Beecham, U.K (crude mite extract); host or cells: crude house dust mite extract
- Km [1]: 20 µM
- Km [2]: 6 µM
- Km [3]: 5.0 µM
- Km [4]: 10 µM
- Km [5]: 15 µM
- Km [6]: 20 µM
- Km [7]: 9 µM
- Km [8]: 2.5 µM
- Km [9]: 3 µM
- Km [10]: 6 µM
- Km [11]: 12 µM
- Km [12]: 35 µM
